Patent publication US20230212319A1, “NOVEL ANTIGEN BINDING DOMAINS AND SYNTHETIC ANTIGEN RECEPTORS INCORPORATING THE SAME” (University of Southern California, priority 2020, published 2023)

These molecules were tested on L363 cells (assay: JNG assay, co-culture with L363 cells). Details: co-culture with L363.
Type: cell-based
Procedure: Cellular supernatant is collected and assayed for the induction of cytokines (e.g., IL2).
JNG (Jurkat cells expressing EGFP under an NFAT promoter) were infected with lentiviral vectors encoding different single chain and multi-chain SARs by spinfection in the presence of 8 µg/ml of Polybrene® (Sigma, Catalog no. H9268). The Jurkat-NFAT-GFP cells are engineered in such a way that the IL-2 promoter, which carries NFAT binding sites, is cloned upstream of the GFP gene. These cells have been used to study signaling via TCR and CAR. The different SARs were stably expressed in Jurkat NFAT-GFP cells by lentiviral mediated gene transfer, followed by selection with puromycin or blasticidin. No drug selection was used in case the construct lacked an antibiotic resistance gene. The SAR-expressing Jurkat-NFAT-GFP cells were cocultured with the target cells at E:T ratio of approximately 1:2 for approximately 4 hours to 18 hours. When the interaction between SIRs and their target antigen results in activation of the NFAT pathway, GFP expression is induced. […] GFP expression was monitored by FACS analysis. The Jurkat-NFAT-GFP (parental) cells were used as control. The structure of different constructs can be determined based on their names. […] The sequence of the other constructs in the table can be similarly determined from their names and by referring to the different Tables of this disclosure that provide the names and SEQ ID NO of the different modules. Alternatively, the composition and modular architecture of the different SAR constructs can be determined from their sequences by bioinformatics tools, including using nucleic acid and amino acids homology searches. A SAR is considered positive in the assay in case the SAR expressing Jurkat-NFAT-GFP cells show greater % GFP positive cells when cultured with the target cell line as compared to parental Jurkat-NFAT-GFP cells. […] In general, the number +/-, +, 2+, 3+, 4+, 5+ refer to approximately 5%, 10%, 20%, 30%, 40% and 50% GFP positive cells. The % of GFP induction in the above assay is dependent not only the relative strength of the SAR but also, among other factors, on the relative level of expression of the SAR in the JNG cells and the relative level of expression of the target antigen in the target cell line. To control for the difference in gene transduction efficiency of the different SAR constructs, the experiment was conducted with JNG cells transduced with SAR constructs co-expressing a drug resistance gene (e.g., puromycin or PAC) followed by drug selection to generate a stable population of SAR-expressing cells. It is to be noted that the drug resistance gene (e.g., PAC) in the SAR constructs is optional and in vivo studies were conducted with SAR constructs lacking the PAC gene.

| Molecule | NFAT-GFP ASSAY: L363 |
| --- | --- |
| 21994 (protein) MALPVTALLLPLALLLHAARPQVQLVESGGGLVQPGGSLRLSCAASGFTFTNHAMSWVRQAPGKGLELVSSISGNGRTTYYADSVKGRFTISRDISKNTLDLQMNSLRAEDTAVYYCAKDGGETLVDSRGQGTLVTVSSLEDLKNVFPPEVAVFEPSEAEISHTQKATLVCLATGFYPDHVELSWWVNGKEVHSGVCTDPQPLKEQPALNDSRYCLSSRLRVSATFWQNPRNHFRCQVQFYGLSENDEWTQDRAKPVTQIVSAEAWGRADCGFTSESYQQGVLSATILYEILLGKATLYAVLVSALVLMAMVKRKDSRGRAKRSGSGATNFSLLKQAGDVEENPGPTSMDWIWRILFLVGAATGAHSFEVQLLESGGGLVQPGGSLRLSCAASGFIFSSYAMSWVRQAPGKGQEWVSGVSGTGVNTYYADSVKGRFTISRDNSKNTLYLQMNSLRAEDTAVYYCASGKGWDSGSWYEDYRGQGTLVTVSSTRIQNPDPAVYQLRDSKSSDKSVCLFTDFDSQTNVSQSKDSDVYITDKCVLDMRSMDFKSNSAVAWSNKSDFACANAFNNSIIPEDTFFPSPESSCDVKLVEKSFETDTNLNFQNLSVIGFRILLLKVAGFNLLMTLRLWSSRAKRSGSGVKQTLNFDLLKLAGDVESNPGPSRGHMTEYKPTVRLATRDDVPRAVRTLAAAFADYPATRHTVDPDRHIERVTELQELFLTRVGLDIGKVWVADDGAAVAVWTTPESVEAGAVFAEIGPRMAELSGSRLAAQQQMEGLLAPHRPKEPAWFLATVGVSPDHQGKGLGSAVVLPGVEAAERAGVPAFLETSAPRNLPFYERLGFTVTADVEVPEGPRTWCMTRKPGA | L363 (+) (refer to approximately 5%, 10%, 20%, 30%, 40% and 50% GFP positive cells) |
| 21998 (protein) MDWIWRILFLVGAATGAHSQLQLQESGPGLVKPSETLSLTCTVSGGSVSSSSYYWGWIRQPPGKRLELIGSIYYGGSTYFNPSLKTRVTISVDTSKNQFSLKLSSVTAADTAVYYCAGGDTYGPVGQWPSDYRGQGTLVTVSSLEDLKNVFPPEVAVFEPSEAEISHTQKATLVCLATGFYPDHVELSWWVNGKEVHSGVCTDPQPLKEQPALNDSRYCLSSRLRVSATFWQNPRNHFRCQVQFYGLSENDEWTQDRAKPVTQIVSAEAWGRADCGFTSESYQQGVLSATILYEILLGKATLYAVLVSALVLMAMVKRKDSRGRAKRSGSGATNFSLLKQAGDVEENPGPTSMDWIWRILFLVGAATGAHSFEQVQLVESGGGLVQPGGSLRLSCAASGFTFTNHAMSWVRQAPGKGLELVSSISGNGRTTYYADSVKGRFTISRDISKNTLDLQMNSLRAEDTAVYYCAKDGGETLVDSRGQGTLVTVSSTRIQNPDPAVYQLRDSKSSDKSVCLFTDFDSQTNVSQSKDSDVYITDKCVLDMRSMDFKSNSAVAWSNKSDFACANAFNNSIIPEDTFFPSPESSCDVKLVEKSFETDTNLNFQNLSVIGFRILLLKVAGFNLLMTLRLWSSRAKRSGSGVKQTLNFDLLKLAGDVESNPGPSRGHMTEYKPTVRLATRDDVPRAVRTLAAAFADYPATRHTVDPDRHIERVTELQELFLTRVGLDIGKVWVADDGAAVAVWTTPESVEAGAVFAEIGPRMAELSGSRLAAQQQMEGLLAPHRPKEPAWFLATVGVSPDHQGKGLGSAVVLPGVEAAERAGVPAFLETSAPRNLPFYERLGFTVTADVEVPEGPRTWCMTRKPGA | L363 (+) (refer to approximately 5%, 10%, 20%, 30%, 40% and 50% GFP positive cells) |
| 22009 (protein) MALPVTALLLPLALLLHAARPLEGKPIPNPLLGLDSTGSGEDLKNVFPPEVAVFEPSKAEIAHTQKATLVCLATGFYPDHVELSWWVNGKEVHSGVCTDPQPLKEQPALNDSRYCLSSRLRVSATFWQNPRNHFRCQVQFYGLSENDEWTQDRAKPVTQIVSAEAWGRADCGITSASYHQGVLSATILYEILLGKATLYAVLVSALVLMAMVKRKDSRGRAKRSGSGATNFSLLKQAGDVEENPGPTSTMDWIWRILFLVGAATGAHSQLQLQESGPGLVKPSETLSLTCTVSGGSVSSSSYYWGWIRQPPGKRLELIGSIYYGGSTYFNPSLKSRVTISVDTSKNQFSLKLSSVTAADTAVYYCAGGDTYGPVGQWPSDYRGQGTLVTVSSGGGGSGGGSFEVQLLESGGGLVQPGGSLRLSCAASGFIFSIYAMSWVRQAPGKGLEWVSGISGSGVNTYYADSVKGRFIISRDNSRNTVYLQMNSLRADDTAVYHCANGKGWDGNTWYEDYRGQGTLVTVSSTREQKLISEEDGSGIQNPDPAVYQLRDSKSSDKSVCLFTDFDSQTNVSQSKDSDVYITDKCVLDMRSMDFKSNSAVAWSNKSDFACANAFNNSIIPEDTFFPSSDVPCDVKLVEKSFETDTNLNFQNLSVIGFRILLLKVAGFNLLMTLRLWSSRAKRSGSGVKQTLNFDLLKLAGDVESNPGPSRGHMTEYKPTVRLATRDDVPRAVRTLAAAFADYPATRHTVDPDRHIERVTELQELFLTRVGLDIGKVWVADDGAAVAVWTTPESVEAGAVFAEIGPRMAELSGSRLAAQQQMEGLLAPHRPKEPAWFLATVGVSPDHQGKGLGSAVVLPGVEAAERAGVPAFLETSAPRNLPFYERLGFTVTADVEVPEGPRTWCMTRKPGA | L363 (+/-) (refer to approximately 5%, 10%, 20%, 30%, 40% and 50% GFP positive cells) |
| 21996 (protein) MALPVTALLLPLALLLHAARPQVQLVESGGGLVQPGGSLRLSCAASGFTFTNHAMSWVRQAPGKGLELVSSISGNGRTTYYADSVKGRFTISRDISKNTLDLQMNSLRAEDTAVYYCAKDGGETLVDSRGQGTLVTVSSLEDLKNVFPPEVAVFEPSEAEISHTQKATLVCLATGFYPDHVELSWWVNGKEVHSGVCTDPQPLKEQPALNDSRYCLSSRLRVSATFWQNPRNHFRCQVQFYGLSENDEWTQDRAKPVTQIVSAEAWGRADCGFTSESYQQGVLSATILYEILLGKATLYAVLVSALVLMAMVKRKDSRGRAKRSGSGATNFSLLKQAGDVEENPGPTSMDWIWRILFLVGAATGAHSFEVQLLESGGGLVQPGGSLRLSCAASGFIFSIYAMSWVRQAPGKGLEWVSGISGSGVNTYYAHSVKGRFIISRDNSRNTVYLQMNSLRADDTAVYHCANGKGWDGNTWYEDYRGQGTLVTVSSTRIQNPDPAVYQLRDSKSSDKSVCLFTDFDSQTNVSQSKDSDVYITDKCVLDMRSMDFKSNSAVAWSNKSDFACANAFNNSIIPEDTFFPSPESSCDVKLVEKSFETDTNLNFQNLSVIGFRILLLKVAGFNLLMTLRLWSSRAKRSGSGVKQTLNFDLLKLAGDVESNPGPSRGHMTEYKPTVRLATRDDVPRAVRTLAAAFADYPATRHTVDPDRHIERVTELQELFLTRVGLDIGKVWVADDGAAVAVWTTPESVEAGAVFAEIGPRMAELSGSRLAAQQQMEGLLAPHRPKEPAWFLATVGVSPDHQGKGLGSAVVLPGVEAAERAGVPAFLETSAPRNLPFYERLGFTVTADVEVPEGPRTWCMTRKPGA | L363 (+) (refer to approximately 5%, 10%, 20%, 30%, 40% and 50% GFP positive cells) |
| 22014 (protein) MALPVTALLLPLALLLHAARPQVQLVESGGGLVQPGGSLRLSCAASGFTFTNHAMSWVRQAPGKGLELVSSISGNGRTTYYADSVKGRFTISRDISKNTLDLQMNSLRAEDTAVYYCAKDGGETLVDSRGQGTLVTVSSLEDLKNVFPPEVAVFEPSEAEISHTQKATLVCLATGFYPDHVELSWWVNGKEVHSGVCTDPQPLKEQPALNDSRYCLSSRLRVSATFWQNPRNHFRCQVQFYGLSENDEWTQDRAKPVTQIVSAEAWGRADCGFTSESYQQGVLSATILYEILLGKATLYAVLVSALVLMAMVKRKDSRGRAKRSGSGATNFSLLKQAGDVEENPGPTSMDWIWRILFLVGAATGAHSFEVQLLESGGGLVQPGGSLRLSCAASGFIFSIYAMSWVRQAPGKGLEWVSGISGSGVNTYYADSVKGRFIISRDNSRNTVYLQMNSLRADDTAVYHCANGKGWDGNTWYEDYRGQGTLVTVSSTRIQNPDPAVYQLRDSKSSDKSVCLFTDFDSQTNVSQSKDSDVYITDKCVLDMRSMDFKSNSAVAWSNKSDFACANAFNNSIIPEDTFFPSPESSCDVKLVEKSFETDTNLNFQNLSVIGFRILLLKVAGFNLLMTLRLWSSRAKRSGSGVKQTLNFDLLKLAGDVESNPGPSRGHMTEYKPTVRLATRDDVPRAVRTLAAAFADYPATRHTVDPDRHIERVTELQELFLTRVGLDIGKVWVADDGAAVAVWTTPESVEAGAVFAEIGPRMAELSGSRLAAQQQMEGLLAPHRPKEPAWFLATVGVSPDHQGKGLGSAVVLPGVEAAERAGVPAFLETSAPRNLPFYERLGFTVTADVEVPEGPRTWCMTRKPGA | +/- (refer to approximately 5%, 10%, 20%, 30%, 40% and 50% GFP positive cells) |
